For 3 molecules, binding result and Kd results are on record in publication PMC11033526 (Journal of Biochemistry, 2023).

No end group written: not given here. *: point of attachment. Biotin = O=C1N[C@H]2[C@H](CS[C@H]2CCCCC(=O)*)N1

Assay [1] addresses T1, mouse calmodulin (mouse, UniProt P0DP26 1-149).
T1 construct: also called mCaM; CaM; source: E. coli BL21 (DE3) pLysS, purified (Phenyl Sepharose)
As to the kind of experiment: pull-down; His-tagged ySUMO-fusion protein on Ni-NTA Superflow, ySUMO portion denatured with 6 M guanidine chloride; 0.6 μM mCaM in +Ca2+ buffer (150 mM NaCl, 0.1% Tween 20, 1 mM CaCl2, pH 7.5), 4°C, 2 h; CaM detected by western blot. The note with it: both partners purified.

Assay [2] has as its target T1, mouse calmodulin. As to the kind of experiment: SPR; Biacore 2000; biotinylated T1r peptides on a CAP chip (Biotin CAPture Kit); mCaM injected, 2-fold dilutions from 50 μM, +Ca2+ (1 mM CaCl2), 25°C, 30 μl/min; KD from equilibrium responses, 1:1 model. As to conditions: both partners purified.

B1: FLAG-ySUMO-mT1r2 CT (domain or fragment)
chain: PKCYMILFYPERNTSAYFNSMIQGYTMRKS
notes: mouse T1r2, cytosolic C-terminal region (CT), residues 814-843; On the Ni-NTA beads the ySUMO portion was denatured with 6 M guanidine chloride before mCaM was added; also called ySUMO-fusion protein of the mT1r2 C-terminal region; source: E. coli BL21 (DE3), purified (Ni-NTA); not shown: FLAG, N-terminal, kept; ySUMO, N-terminal, kept; His8, C-terminal, kept
B1: in the assay with mouse calmodulin [1], the binding result was “binds”.

B2: biotin-mT1r2 CT peptide (cytosolic C-terminal region of mouse taste receptor type 1 subunit 2) (peptide)
peptide: Biotin-GGSGGSPKCYMILFYPERNTSAYFNSMIQGYTMRKS
notes: N-terminal linker segment; mouse T1r2, cytosolic C-terminal region as defined by TMHMM, residues 814-843; source: synthetic peptide (Hokkaido System Science, ~90% purity)
In the assay with mouse calmodulin [2], B2 yielded an equilibrium dissociation constant (Kd) of 27 µM.

B3: FLAG-ySUMO-mT1r1 CT (domain or fragment)
chain: PKCYVILCRPELNNTEHFQASIQDYTRRCGTT
notes: mouse T1r1, cytosolic C-terminal region (CT), residues 811-842; On the Ni-NTA beads the ySUMO portion was denatured with 6 M guanidine chloride before mCaM was added; also called ySUMO-fusion protein of the mT1r1 C-terminal region; source: E. coli BL21 (DE3), purified (Ni-NTA); not shown: FLAG, N-terminal, kept; ySUMO, N-terminal, kept; His8, C-terminal, kept
Regarding B3, the binding result with mouse calmodulin [1] is reported as “binds”.
